Experimental data published in patent US20100322948A1, “Bone morphogenetic protein (BMP)-binding domains of proteins of the repulsive guidance molecule (RGM) protein family and functional fragments thereof, and use of same” (ABBOTT GMBH & CO. KG, priority 2007, published 2010).
Entries after “also recorded” stand apart in the source; their conditions may differ.

Experiments:
[1] = tested on: NTera-2 cells; assay: Neurite growth test using NTera-2 cells (test method 2); format: cell-based, human; conditions: FIG. 7B
Source text: Test Method 2: Illustration of the Effect of RGM Peptides in the Neurite Growth Test, Using NTera-2 Cells
The human pluripotent cancer cell line NTera2 (DSMZ ACC527) is established as a cell culture model. Neurites grow from cell aggregates and form a corona of neurites around the particular aggregate.
NTera-2 cells are human embryonic teratocarcinoma cells. A carcinoma is a cancerous tumor, whereas a teratoma or teratocarcinoma is a mixed tumor of the germ cells composed of various differentiated and undifferentiated tissues, and therefore, the same as for the SH-SY5Y culture, comprises a heterogeneous population. The tumor is usually present in an encapsulated form in the various types, such as hair, skin, teeth, muscle, and nerve tissue. The tumors typically originate in the ovaries, testes, abdominal cavity, or brain. The cell line was cloned from the Tera-2 line, obtained from a metastatic teratocarcinoma in a person.
NTera-2 cells are epithelial, adherently growing cells which form a monolayer. Due to the large number of granular particles which they contain, NTera-2 cells may be easily differentiated from the other cells. The cells were cultivated by 1:5 splitting twice a week. The cells of this mixed culture may be differentiated using retinoic acid in neuronal cells.
Culture Medium Fur Growth […]
In order to differentiate the cells it was necessary to introduce antibiotic into the culture medium of the cell line due to the fact that the cells remained in the same culture flask for three weeks. Previously, the undifferentiated culture had been detrypsinated and the cell count determined using a Neubauer counting chamber. […] 25 μL retinoic acid (10 μM) was readded to the medium under dim light conditions. […]
The culture was stored in an incubator at 37° C. with 5% CO2 gassing, and the medium was changed at the beginning and at the end of the week. […] After three weeks the cells were differentiated and were ready for use in experiments. […]
Different plate formats were used for the tests. For the isolation of protein, 6-well plates were necessary for recovering a sufficient quantity. […]

[2] = biological target: T1, BMP-2 (Homo sapiens, UniProt P12643); assay: In vitro interaction test, variant B: immobilized RGMA-Fc fusion proteins, detection of BMP-2 binding; conditions: Working Example 2, FIG. 4, anti-BMP-2 biotin antibodies
T1 construct: purchased R&D Systems 355-BM; host or cells: CHO cells (said of #355-BM in the BRE-Luc section)
T1 sequence (P12643 283-396): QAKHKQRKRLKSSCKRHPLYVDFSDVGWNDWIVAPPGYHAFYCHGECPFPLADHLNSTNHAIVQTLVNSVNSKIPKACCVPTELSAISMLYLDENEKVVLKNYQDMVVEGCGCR
Method: Test Method 4: In Vitro Interaction Test for Determining the Interaction between RGMA and BMP-2 and -4
The interaction tests were carried out as described below:
Variant B: Immobilization of Various RGMA-Fc Fusion Proteins and Detection of the Binding of the BMP-2/ or -4 Protein
Immunoplate Cert. MaxiSorp F96 (Nunc, 439454)
RGMA-Fc fragments • Volume used: 2.5 μg/mL in Na2CO3; addition: 50 μL per well • 1 hour at 37° C. in damp chamber
3. Washing step: • Wash 3× with PBS/0.02% Tween 20
4. Blocking: • 3% BSA in PBS/0.02% Tween, 1 hour at 37° C. in damp chamber • Addition : 200 μL per well, incubation: 1 hour at 37° C. in damp chamber
Recombinant human BMP-2, Catalog No.: 355-BM, Company: R&D Systems; or
Recombinant human RGM A, R&D Systems; Prod. #2495-RM,
recombinant human BMP-4, Catalog No.: 314-BM, Company: R&D Systems;
Concentration in each case: 10 μg/mL
Dilution steps: in each case 1:2 with PBS/0.02% Tween 20
6. Washing step: • Wash 3× with PBS/0.02% Tween 20
Anti-human BMP-4 biotin antibody; Catalog No.: BAM7572, 1:200 in 1% BSA-PBS-T
8. Washing step: • Wash 3× with PBS/0.02% Tween 20
10. Washing step: • Wash 3× with PBS/0.02% Tween 20 […]
The test was conducted according to test method 4, variant B above, with immobilization of the fusion proteins (1 mg/mL). The binding of BMP-4 and -2 was detected using anti-BMP-4 and anti-BMP-2 biotin antibodies, respectively.

B1: fragment #786: Fc fusion protein of human RGM A amino acids 47-168 (protein)
chain: PCKILKCNSEFWSATSGSHAPASDDTPEFCAALRSYALCTRRTARTCRGDLAYHSAVHGIEDLMSQHNCSKDGPTSQPRLRTLPPAGDSQERSDSPEICHYEKSFHKHSATPNYTHCGLFGD
modifications: left off: small tags and cut ends; a dimerising Fc or GST
- inhibition of neurite growth [1]: inhibit the neurite growth
- inhibitory activity in neurite growth test compared with 316-386-Fc ([1]; listed as 47-168-Fc): much stronger effect; also recorded: significantly higher activity
- binding of BMP-2 [2]: more significant binding
